1 substance from patent US20090118481A1 can be followed below.

In this test the target is LS-Rg, chimeric protein of the extracellular domain of human L-selectin joined to the Fc domain of a human G2 immunoglobulin (human) (UniProt P14151). Briefly: competition of unlabeled antibody with radio-labeled 2'-F RNA ligand LF1807 for purified LS-Rg.
LS-Rg, chimeric protein of the extracellular domain of human L-selectin joined to the Fc domain of a human G2 immunoglobulin (human), sequence (P14151 39-332, change not shown): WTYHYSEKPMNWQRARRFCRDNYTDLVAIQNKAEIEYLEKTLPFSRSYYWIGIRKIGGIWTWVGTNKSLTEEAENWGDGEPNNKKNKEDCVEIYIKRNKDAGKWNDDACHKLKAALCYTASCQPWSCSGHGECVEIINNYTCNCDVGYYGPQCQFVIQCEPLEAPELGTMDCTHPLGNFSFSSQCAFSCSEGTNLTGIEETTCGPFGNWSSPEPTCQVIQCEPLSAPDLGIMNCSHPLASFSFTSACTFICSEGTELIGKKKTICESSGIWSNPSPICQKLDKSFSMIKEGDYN

Substance “DREG-56, blocking monoclonal anti-L-selectin antibody” showed a concentration giving complete inhibition of 300 nM.
